{"source": "patent US11220526B2", "about": "“Neuropeptide S receptor (NPSR) agonists” (Research Triangle Institute, priority 2016, dated 2022)", "key": {"NPSR": {"molecular_target": "T1, NPSR (Homo sapiens, UniProt Q6W5P4)", "T1 sequence (Q6W5P4 1-371)": "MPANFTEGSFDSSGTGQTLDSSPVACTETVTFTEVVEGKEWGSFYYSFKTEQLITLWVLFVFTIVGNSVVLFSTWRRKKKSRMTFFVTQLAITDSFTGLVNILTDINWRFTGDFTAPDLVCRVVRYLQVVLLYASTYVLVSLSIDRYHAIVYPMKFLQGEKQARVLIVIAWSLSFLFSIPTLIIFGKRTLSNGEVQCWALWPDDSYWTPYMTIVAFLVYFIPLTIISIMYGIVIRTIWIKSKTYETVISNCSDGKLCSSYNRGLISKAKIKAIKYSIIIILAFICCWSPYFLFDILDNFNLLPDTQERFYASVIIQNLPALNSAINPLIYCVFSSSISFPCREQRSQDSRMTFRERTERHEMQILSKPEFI", "details": "Bernier et al. 2006; cited from earlier work"}, "C57BL/6 mice": {"system": "C57BL/6 mice", "assay": "Locomotor activity (horizontal, vertical, stereotypic) after i.c.v. injection", "format": "in vivo", "method": "Male C57BL/6 mice (National Cancer Institute, Bethesda, Md., or Charles River Laboratories, Wilmington, Mass.), age 8-12 weeks, were group-housed (4 animals per cage) under controlled conditions (temperature 21 f 2° C.; relative humidity 50-60%; 12-hour light-dark cycle, lights on 6:00 AM) with free access to food and water. For intracerebroventricular (i.c.v.) drug injections, mice were briefly anesthetized with isofluorane. NPS was dissolved in phosphate-buffered saline (PBS, pH 7.4) containing 0.1% bovine serum albumin and injected i.c.v. (total volume: 2 μl) as described before (Xu et al., 2004). NPSR antagonist compounds were dissolved in PBS containing 10% Cremophor EL (Sigma) and 100 μl were injected intraperitoneally (i.p.).\nLocomotion of mice was monitored in an automated activity system equipped with infrared sensors for both horizontal and vertical activity measurements (Versamax, Accuscan Inc., Columbus, Ohio). Male C57BL/6 mice were allowed to habituate to the recording chamber for 1 h. Vehicle or NPSR antagonist compound (in PBS, 10% cremophor EL) were injected i.p. 10 minutes before central administration of either NPS (1 nmole in 2 μl PBS, 0.1% BSA) or vehicle (PBS, 0.1% BSA). […] Horizontal activity represents infrared beam breaks in the X and Y dimension, while vertical activity was recorded by infrared sensors located 8 cm above the chamber floor (Z dimension). […]"}, "NPSR-C-Alt": {"molecular_target": "T2, NPSR-C-Alt (Homo sapiens, UniProt Q6W5P4)", "T2 sequence (Q6W5P4 1-377 isoform Q6W5P4-4)": "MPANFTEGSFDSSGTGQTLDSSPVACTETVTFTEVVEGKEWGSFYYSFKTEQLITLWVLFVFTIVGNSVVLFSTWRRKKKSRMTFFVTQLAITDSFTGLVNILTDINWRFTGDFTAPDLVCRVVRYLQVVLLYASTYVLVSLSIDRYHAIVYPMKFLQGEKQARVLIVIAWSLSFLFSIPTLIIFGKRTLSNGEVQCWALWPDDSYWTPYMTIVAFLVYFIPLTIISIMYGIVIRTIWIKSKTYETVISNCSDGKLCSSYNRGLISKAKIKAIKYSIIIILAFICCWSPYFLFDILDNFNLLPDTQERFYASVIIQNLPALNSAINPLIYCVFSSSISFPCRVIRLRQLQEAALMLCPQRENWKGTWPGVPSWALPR", "details": "functional assay; cited from earlier work"}, "[1]": {"details": "NPS administration; cited from earlier work"}}, "note": "Square brackets hold non-standard residues; d marks the D form. Peptide text beside a SMILES is read from it. * marks the point of attachment. Phe(4-Cl) = N[C@@H](Cc1ccc(Cl)cc1)C(=O)O; Lys(Me2) = CN(C)CCCC[C@H](N)C(=O)O; Bz = O=C(c1ccccc1)*", "data": [{"compound": "peptide 4-20: NPS with the first three NH2-terminal residues removed (NGVGTGMKKTSFQRAKS; Neuropeptide S; UniProt P0C0P6 73-89, looked up, fragment)", "values": [{"measurement": "effect of truncation on NPSR activation", "setting": "NPSR", "result": "largely inactive"}]}, {"compound": "CN(C)CCCC[C@H](NC(=O)[C@H](Cc1ccc(Cl)cc1)NC(=O)c1ccccc1)C(=O)N[C@@H](CC(N)=O)C(N)=O", "note": "[Example R06039-398] (Bz-[Phe(4-Cl)]-[Lys(Me2)]-Asn-NH2)", "values": [{"measurement": "cumulative activities (horizontal, vertical, stereotypic) measured", "setting": "C57BL/6 mice; icv administration, male C57BL/6 mice, 90 minutes recording", "result": "increasing with dose"}]}, {"compound": "O=C(NCCN1CCCCC1)N1CCN2C(=O)OC(c3ccccc3)(c3ccccc3)C2C1", "note": "(centres unmarked) [RTI-11817-163]", "values": [{"measurement": "effect on R06039-398 mediated increases in horizontal and vertical activity", "setting": "C57BL/6 mice; antagonist added to icv R06039-398, mice", "result": "reverses"}]}, {"compound": "peptide 3-20: NPS with the first two NH2-terminal residues removed (RNGVGTGMKKTSFQRAKS; Neuropeptide S; UniProt P0C0P6 72-89, looked up, fragment)", "values": [{"measurement": "effect of truncation on NPSR activation", "setting": "NPSR", "result": "largely inactive"}]}, {"compound": "peptide 2-20: NPS with Ser-1 removed (FRNGVGTGMKKTSFQRAKS; Neuropeptide S; UniProt P0C0P6 71-89, looked up, fragment)", "values": [{"measurement": "effect of truncation on NPSR activation", "setting": "NPSR", "result": "detrimental to function"}]}, {"compound": "peptide 1-6: NPS with the C-terminal 14 residues removed (SFRNGV; Neuropeptide S; UniProt P0C0P6 70-75, looked up, fragment)", "values": [{"measurement": "effect of truncation on NPSR activation", "setting": "NPSR", "result": "limited effect on the potency"}]}, {"compound": "SFRNGVGTGMKKTSFQRAKS [hNPS, 20 residue peptide, endogenous ligand of the neuropeptide S receptor]", "values": [{"measurement": "potency at NPSR-C-Alt versus the 107I variant", "setting": "NPSR-C-Alt", "result": 30, "unit": "fold lower"}, {"measurement": "performance in novel recognitions assays", "setting": "[1]", "result": "dose-dependently improved performance"}]}]}
